According to US20230374157A1:

What was measured:
[1] = biological target: His-tagged human HER3 extracellular domain (Acro ER3-H5223) (human) (UniProt P21860); assay: BLI, SI-1R12 covalently coupled to AR2G sensors, monomeric HER3 ECD in solution, 1:1 fit
[2] = biological target: His-tagged human EGFR extracellular domain (expressed and purified in-house) (human) (UniProt P00533); assay: BLI, antibody on AHC tips, monomeric EGFR ECD in solution, 1:1 fit
[3] = biological target: His-tagged human HER3 extracellular domain (Acro ER3-H5223) (human) (UniProt P21860); assay: BLI, antibody on AHC tips, monomeric HER3 ECD in solution, 1:1 fit
[4] = biological target: human His-tagged HER3 extracellular domain (in-house expressed) (human) (UniProt P21860); assay: BLI sandwich assay, antibody held on immobilized biotinylated EGFR, 500 nM HER3 ECD in solution, 1:1 fit
[5] = biological target: biotinylated human EGFR extracellular domain (Acro EGF-H82E3) (human) (UniProt P00533); assay: BLI avidity format, biotinylated EGFR ECD on SA sensors, antibody in solution, 1:1 fit

Sequence of SI-1X4.2, nimotuzumab-based EGFR x HER3 bispecific antibody with MM-111 anti-HER3 scFv (heavy): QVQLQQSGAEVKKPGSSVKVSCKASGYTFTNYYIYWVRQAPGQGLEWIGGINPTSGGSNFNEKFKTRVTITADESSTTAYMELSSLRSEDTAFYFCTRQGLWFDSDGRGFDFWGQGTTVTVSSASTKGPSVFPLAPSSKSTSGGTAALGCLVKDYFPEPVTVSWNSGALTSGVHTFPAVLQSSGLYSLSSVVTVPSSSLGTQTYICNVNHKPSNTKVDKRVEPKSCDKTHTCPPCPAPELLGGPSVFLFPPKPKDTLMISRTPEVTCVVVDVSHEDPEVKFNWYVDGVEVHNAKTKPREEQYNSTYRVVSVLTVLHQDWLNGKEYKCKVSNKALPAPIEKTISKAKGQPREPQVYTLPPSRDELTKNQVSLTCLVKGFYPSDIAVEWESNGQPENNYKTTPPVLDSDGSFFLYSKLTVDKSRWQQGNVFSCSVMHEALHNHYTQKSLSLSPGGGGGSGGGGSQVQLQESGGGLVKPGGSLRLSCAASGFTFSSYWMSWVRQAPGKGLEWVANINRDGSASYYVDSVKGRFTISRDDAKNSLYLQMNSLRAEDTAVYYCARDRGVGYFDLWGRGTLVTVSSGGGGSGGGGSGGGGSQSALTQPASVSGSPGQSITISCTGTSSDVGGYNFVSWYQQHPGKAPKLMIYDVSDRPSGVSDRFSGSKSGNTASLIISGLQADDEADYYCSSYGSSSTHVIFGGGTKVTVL
Sequence of SI-1X4.2, nimotuzumab-based EGFR x HER3 bispecific antibody with MM-111 anti-HER3 scFv (light): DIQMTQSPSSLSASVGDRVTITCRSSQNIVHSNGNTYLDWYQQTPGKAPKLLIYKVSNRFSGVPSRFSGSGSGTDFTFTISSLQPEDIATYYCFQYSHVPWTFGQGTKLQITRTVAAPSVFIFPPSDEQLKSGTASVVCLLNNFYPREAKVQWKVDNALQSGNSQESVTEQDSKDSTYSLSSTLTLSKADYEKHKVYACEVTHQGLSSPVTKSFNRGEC

Row | Kd [1] | koff [1] | kon [1] | Kd [2] | Kd [3] | Kd [4] | koff [2] | kon [2] | koff [3] | kon [3] | Kd [5] | koff [5] | kon [5] | koff [4] | kon [4] | Substance
1 | 95.6 nM | 0.0422 s⁻¹ | 441000 M⁻¹ s⁻¹ | – | – | – | – | – | – | – | – | – | – | – | – | SI-1R12 (MM-111), HER2 x HER3 bispecific human serum albumin fusion (bispecific antibody)
2 | – | – | – | 5.38 nM | 107 nM | 617 nM | – | – | – | – | – | – | – | – | – | SI-1X6.4, bispecific tetravalent anti-EGFR x HER3 antibody (cetuximab variable regions with mouse framework, MM-111 anti-HER3 scFv) (bispecific antibody)
3 | – | – | – | 18.8 nM | 146 nM | 165 nM | 0.00202 s⁻¹ | 108000 M⁻¹ s⁻¹ | 0.038 s⁻¹ | 260000 M⁻¹ s⁻¹ | 0.398 nM | 4.25e-05 s⁻¹ | 107000 M⁻¹ s⁻¹ | 0.0459 s⁻¹ | 279000 M⁻¹ s⁻¹ | SI-1X4.2, nimotuzumab-based EGFR x HER3 bispecific antibody with MM-111 anti-HER3 scFv
4 | – | – | – | 2.77 nM | 131 nM | 770 nM | – | – | – | – | – | – | – | – | – | SI-1X2, panitumumab-based EGFR x HER3 bispecific antibody with MM-111 anti-HER3 scFv
